According to patent publication US20150098924A1 (TOPOTARGET SWITZERLAND, published 2015):

Biological target: T1, Fas receptor (human, UniProt P25445 26-335)
T1 sequence (looked up): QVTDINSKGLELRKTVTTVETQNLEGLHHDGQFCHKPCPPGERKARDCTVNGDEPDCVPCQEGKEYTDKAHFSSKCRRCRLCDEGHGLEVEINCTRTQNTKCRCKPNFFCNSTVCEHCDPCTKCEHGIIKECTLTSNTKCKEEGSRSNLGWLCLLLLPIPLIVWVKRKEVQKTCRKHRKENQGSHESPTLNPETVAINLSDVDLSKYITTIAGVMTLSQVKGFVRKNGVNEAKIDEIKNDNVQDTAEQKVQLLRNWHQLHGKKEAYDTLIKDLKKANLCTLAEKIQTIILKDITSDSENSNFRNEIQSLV
Test: cell-based or functional assay

Molecule: CH11 (antibody)
- IC50 (ng/ml), PESMTS survival assay, ARH-77 cells: > 10000 ng/mL
- IC50 (ng/ml), PESMTS survival assay, DOHH2 cells: > 10000 ng/mL
- IC50 (ng/ml), PESMTS survival assay, HL60 (AML-M3) cells: > 10000 ng/mL
- IC50 (ng/ml), PESMTS survival assay, Jurkat cells: 6.58 ng/mL
- IC50 (ng/ml), PESMTS survival assay, K562 cells: > 10000 ng/mL
- IC50 (ng/ml), PESMTS survival assay, NB4 (AML-M3) cells: > 10000 ng/mL
- IC50 (ng/ml), PESMTS survival assay, Namalwa (ALL-L3) cells: > 10000 ng/mL
- IC50 (ng/ml), PESMTS survival assay, RPMI-8226 cells: > 10000 ng/mL
- IC50 (ng/ml), PESMTS survival assay, Raji (ALL-L3) cells: 15.8 ng/mL
- IC50 (ng/ml), PESMTS survival assay, SC-1 cells: > 10000 ng/mL
- IC50 (ng/ml), PESMTS survival assay, U266 cells: > 10000 ng/mL

B1: MegaFasL (fusion polypeptide m or hACRP30:hFasL) (ligand)
chain: QLFHLQKELAELRESTSQMHTASSLEKQIGHPSPPPEKKELRKVAHLTGKSNSRSMPLEWEDTYGIVLLSGVKYKKGGLVINETGLYFVYSKVYFRGQSCNNLPLSHKVYMRNSKYPQDLVMMEGKMMSYCTTGQMWARSSYLGAVFNLTSADHLYVNVSELSLVNFEESQTFFGLYKL
- IC50 (ng/ml), PESMTS survival assay, ARH-77 cells: 10.4 ng/mL
- IC50 (ng/ml), PESMTS survival assay, DOHH2 cells: 1.17 ng/mL
- IC50 (ng/ml), PESMTS survival assay, HL60 (AML-M3) cells: 213 ng/mL
- IC50 (ng/ml), PESMTS survival assay, Jurkat cells: 0.06 ng/mL
- IC50 (ng/ml), PESMTS survival assay, K562 cells: > 10000 ng/mL
- IC50 (ng/ml), PESMTS survival assay, NB4 (AML-M3) cells: 16 ng/mL
- IC50 (ng/ml), PESMTS survival assay, Namalwa (ALL-L3) cells: 57 ng/mL
- IC50 (ng/ml), PESMTS survival assay, OPM2 cells: 2.19 ng/mL
- IC50 (ng/ml), PESMTS survival assay, RPMI-8226 cells: 3.57 ng/mL
- IC50 (ng/ml), PESMTS survival assay, Raji (ALL-L3) cells: 5.6 ng/mL
- IC50 (ng/ml), PESMTS survival assay, SC-1 cells: > 10000 ng/mL
- IC50 (ng/ml), PESMTS survival assay, U266 cells: 6.2 ng/mL
